Target: 10042.05.SOSIP trimer (recombinant HIV-1 Env trimer 10042.05 from subject VC10042, cleaved SOSIP form) (HIV-1)
Assay: SEC + native gel or EMSA; Superdex 200 16/600 pg SEC after lectin and ion exchange steps; fractions and final preparation on blue native PAGE; analytical SEC as QC

10042.05.SOSIP trimer (recombinant HIV-1 Env trimer 10042.05 from subject VC10042, cleaved SOSIP form) (complex)
stoichiometry N: 3

— article PMC7259690
